This note sets out measurements from paper PMC11500471 (Protein Science : A Publication of the Protein Society, 2024).

Where “and” joins values, the source holds several entries; their conditions need not be identical. Identical values can stand only once. Like-named read-outs stand apart in the source and are kept apart here.

Series [1] deals with GRPEL2, human, recombinant, without mitochondrial targeting sequence, His tag kept (human) (UniProt Q8TAA5). Nature of the series: SEC-MALS.
The target in series [2] is mitochondrial HSP70 (mtHSP70), human, recombinant, His-tagged (human) (UniProt P38646). Nature of the series: SEC-MALS.
Series [3] addresses GRPEL1, human, recombinant, without mitochondrial targeting sequence, His tag kept (human) (UniProt Q9HAV7). Nature of the series: SEC-MALS.
Series [4] has as its target mitochondrial HSP70 (mtHSP70), human, recombinant, His-tagged (human) (UniProt P38646). Put plainly: MST.
Series [5] has the same target. Nature of the series: MST. This is another data set of the same source.
The target is the same in series [6]. Put plainly: MST. This is another data set of the same source.
Series [7] deals with the molecule itself. Put plainly: SEC-MALS.

Take “GRPEL2, human, recombinant, without mitochondrial targeting sequence, His tag kept (from UniProt Q8TAA5 33-225) (natural protein)”: in series [1], the stoichiometry N is 2 and 4.

As to “GRPEL1, human, recombinant, without mitochondrial targeting sequence, His tag kept (from UniProt Q9HAV7 28-217) (natural protein)”, in series [2], the stoichiometry N (GRPEL1 per mtHSP70 (2:1 complex)) is 2 and the stoichiometry N (GRPEL1 per mtHSP70 (2:2 complex)) was found to be 1. Also, the stoichiometry N in series [3] was 2 and 4.

B1: GRPEL2, human, recombinant, without mitochondrial targeting sequence, His tag cleaved at the TEV site (natural protein)
chain: STATQRTAGEDCRSEDPPDELGPPLAERALRVKAVKLEKEVQDLTVRYQRAIADCENIRRRTQRCVEDAKIFGIQSFCKDLVEVADILEKTTECISEESEPEDQKLTLEKVFRGLLLLEAKLKSVFAKHGLEKLTPIGDKYDPHEHELICHVPAGVGVQPGTVALVRQDGYKLHGRTIRLARVEVAVESQRRL
As to B1, the results for the Kd in series [4], in series [5] and in series [6] were 0.942 µM, 0.152 µM and 0.373 µM, respectively.

B2: GRPEL2-C97A, human, recombinant, without mitochondrial targeting sequence, His tag kept (natural protein, UniProt Q8TAA5 33-225, looked up)
chain: STATQRTAGEDCRSEDPPDELGPPLAERALRVKAVKLEKEVQDLTVRYQRAIADCENIRRRTQRAVEDAKIFGIQSFCKDLVEVADILEKTTECISEESEPEDQKLTLEKVFRGLLLLEAKLKSVFAKHGLEKLTPIGDKYDPHEHELICHVPAGVGVQPGTVALVRQDGYKLHGRTIRLARVEVAVESQRRL
Regarding B2, the “stoichiometry N” value in series [7] was 2 and 4. For the same molecule, the Kd in series [6] turned out to be 0.457 µM.

B3: GRPEL2-C87A, human, recombinant, without mitochondrial targeting sequence, His tag kept (natural protein, UniProt Q8TAA5 33-225, looked up)
chain: STATQRTAGEDCRSEDPPDELGPPLAERALRVKAVKLEKEVQDLTVRYQRAIADAENIRRRTQRCVEDAKIFGIQSFCKDLVEVADILEKTTECISEESEPEDQKLTLEKVFRGLLLLEAKLKSVFAKHGLEKLTPIGDKYDPHEHELICHVPAGVGVQPGTVALVRQDGYKLHGRTIRLARVEVAVESQRRL
With B3, the “stoichiometry N” value in series [7] was 2 and 4. Moreover, the Kd in series [4] came to 0.204 µM; in series [6], 0.203 µM.
